Legend:
[1] = target: T1, hK1 (human tissue kallikrein 1), recombinant (human, UniProt P06870 25-262); experiment: SPR
T1 construct: Expressed in P. pastoris from KLK1 cDNA and purified; enzymatically active; also called KLK1; Recombinant (Pichia) Kallikrein

[2] = target: T1, hK1 (human tissue kallikrein 1), …; experiment: cell-based or functional assay

| Binder | Kd [1] [nM] | koff [1] [s⁻¹] | kon [1] [M⁻¹ s⁻¹] | IC50 (nM), inhibition of hK1 enzyme activity [2] [nM] | IC50 (nM), inhibition of hK1 hydrolysis of Pro-Phe-Arg-AMC [2] [nM] |
| --- | --- | --- | --- | --- | --- |
| M0110-F08 (Fab, V domains shown) VH: EVQLLESGGGLVQPGGSLRLSCAASGFTFSNYVMYWVRQAPGKGLEWVSGIGPSGGFTTYADSVKGRFTISRDNSKNTLYLQMNSLRAEDTAVYYCTRDRYFGSGYYMAAYYYYGMDVWGQGTTVTVSS VL: DIQMTQSPGTLSLSPGERATLSCRASQSVVSNFLAWYQQKPGQAPRLLIYGASSRATGIPDRFSGSGSGTDFILTISRLEPEDFAVYYCQQYGSSPYSFGQGTKLEIKR | – | – | – | 44 | – |
| M0098-G05 (Fab, V domains shown) VH: EVQLLESGGGLVQPGGSLRLSCAASGFTFSKYKMGWVRQAPGKGLEWVSYIRPSGGMTFYADSVKGRFTISRDNSKNTLYLQMNSLRAEDTAVYYCTREHYQASYSSSAWFRMVPAGAFDIWGQGTMVTVSS VL: DIQMTQSPSSLSASVGDRVTITCRASQTISRYLNWYQQKPGTAPKLLIYAASSLQSGVPSRFSGDGSGTDFTLTISSLQPEDFGIYFCQQSYSAPRTFGQGTKVEIKR | – | – | – | – | 4 |
| M0097-F03 (Fab, V domains shown) VH: EVQLLESGGGLVQPGGSLRLSCAASGFTFSNYLMYWVRQAPGKGLEWVSSIRPSGGNTLYADSVKGRFTISRDNSKNTLYLQMNSLRAEDTAVYYCRRGILTGYYWGYYYYMDVWGKGTTVTVSS VL: DIQMTQSPATLSVSPGGRATLSCRASQSVRKNVAWYQQKPGQPPRLLIYGASTRATGVPARFSGSGSGTEFTLTISRMQPEDFVVYHCQQYSSWPAFGQGTMVEINR | – | – | – | – | 1.1 |
| M0108-D11 (Fab, V domains shown) VH: EVQLLESGGGLVQPGGSLRLSCAASGFTFSWYVMTWVRQAPGKGLEWVSVIYPSGGATKYADSVKGRFTISRDNSKNTLYLQMNSLRAEDTAVYYCARRGAGGMDVWGQGTTVTVSS VL: AQSVLTQPASVSGSPGQSITISCTGTNTDVGGYNLVSWYQQHPGKAPKLIIYEVSNRPSGVSNRFSGSKSGNTASLTISGLQAEDEVDYYCGSYTSSSTHVFGSGTKVTVLG | 2.09 | 0.00069 | 330000 | – | – |
| M0102-E09 (Fab, V domains shown) VH: EVQLLESGGGLVQPGGSLRLSCAASGFTFSLYLMEWVRQAPGKGLEWVSSIGSSGGATWYADSVKGRFTISRDNSKNTLYLQMNSLRAEDTAMYYCATDTSRVAGTRLRNYYYYYGMDVWGQGTTVTVSS VL: DIQMTQSPDSLSLSPGERATLSCRASQSISSSYLAWYQQTPGQAPRLLIYHASSRATGVPARFSGSGSGTDFTLTISSLEPEDFAVYYCQQRNNWPPSFTFGGGTKVETKR | – | – | – | – | 0.89 |
| M0114-G09 (Fab, V domains shown) VH: EVQLLESGGGLVQPGGSLRLSCAASGFTFSHYAMDWVRQAPGKGLEWVSVIYSSGGKTTYADSVKGRFTISRDNSKNTLYLQMNSLRAEDTAMYYCARVGVWYGMDVWGQGTTVTVSS VL: AQSALTQPASVSGSPGQSITISCTGTSSDVGSYKLVSWYQQHPGKAPKLMIYEGSKRPSGVSNRFSGSKSGNTASLTISGLQAEDEADYYCCSYAGSSTWVFGGGTKLTVLG | 1.46 | 0.00062 | 424000 | – | – |
| M0131-F09 (Fab, V domains shown) VH: EVQLLESGGGLVQPGGSLRLSCAASGFTFSHYVMQWVRQAPGKGLEWVSGIGPSGGSTTYADSVKGRFTISRDNSKNTLYLQMNSLRAEDTAVYYCARVGVWYGMDVWGQGTTVTVSS VL: DIQMTQSPATLSLSPGERATLSCRASQSVSSYLAWYQQKPGQAPRLLIYDASNRATGIPARFSGSGSGTDFTLTISSLEPEDFAVYYCQQRSNWLWTFGQGTKVEIKR | 2.36 | 0.000734 | 311000 | – | – |
| M0111-D11 (Fab, V domains shown) VH: EVQLLESGGGLVQPGGSLRLSCAASGFTFSWYAMMWVRQAPGKGLEWVSSIWPSGGHTKYADSVKGRFTISRDNSKNTLYLQMNSLRAEDTAVYYCATDQGYFWGQGTLVTVSS VL: DIQMTQSPATLSLSPGDRATLSCRASQRVSSTFLAWYQQRPGQAPRLVIFGTSSRATGIPDRFSGSGSGTDFTLTISRLEPEDFAVYYCHQYGSSPRTFGQGTKVEIKR | – | – | – | 160 | – |

Next, values leading:

| Kd [1] [nM] | koff [1] [s⁻¹] | kon [1] [M⁻¹ s⁻¹] | IC50 (nM), inhibition of hK1 enzyme activity [2] [nM] | IC50 (nM), inhibition of hK1 hydrolysis of Pro-Phe-Arg-AMC [2] [nM] | Binder |
| --- | --- | --- | --- | --- | --- |
| 2.41 | 0.00096 | 399000 | – | – | M0134-B03 (Fab, V domains shown) VH: EVQLLESGGGLVQPGGSLRLSCAASGFTFSHYSMFWVRQAPGKGLEWVSSIYPSGGQTDYADSVKGRFTISRDNSKNTLYLQMNSLRAEDTAVYYCARRGLLWSFDSWGQGTLVTVSS VL: AQSALTQPPSASGSPGQSVTISCTGTSSDVGAYNYVSWYQQHPGKAPKLIIYEVNKRPSGVPDRFSASKSGNTASLTVSGLQAEDEADYYCNSYAGSNSLIFGGGTKLTVLG |
| 2.03 | 0.000396 | 195000 | – | – | M0135-H01 (Fab, V domains shown) VH: EVQLLESGGGLVQPGGSLRLSCAASGFTFSAYLMAWVRQAPGKGLEWVSSIRPSGGETRYADSVKGRFTISRDNSKNTLYLQMNSLRAEDTAVYYCTRDQKGYPDSSSFRRYYYYYGMDVWGQGTTVTVSS VL: not shown |
| – | – | – | – | 1 | M0139-C02 (Fab, V domains shown) VH: EVQLLESGGGLVQPGGSLRLSCAASGFTFSYYKMHWVRQAPGKGLEWVSVIYPSGGKTTYADSVKGRFTISRDNSKNTLYLQMNSLRAEDTAVYYCTREHYQASYSSSAWFRMVPAGAFDIWGQGTMVTVSS VL: DIQMTQSPSSLSASVGDRVTITCRASQGIRRAWYQQKPGKPPKLLINDASSLESGVPSRFSGSGSGTDFTLTISSLQPEDFATYYCQQSYSTPPWTFGQGTKVEIKR |
| 1.71 | 0.000325 | 190000 | – | – | M0138-A03 (Fab, V domains shown) VH: EVQLLESGGGLVQPGGSLRLSCAASGFTFSFYLMFWVRQAPGKGLEWVSGIYPSGGQTVYADSVKGRFTISRDNSKNTLYLQMNSLRAEDTAVYYCARAIGAGSSFWGQGTLVTVSS VL: DIQMTQSPSSVSASVGDRVTITCRASQGISSWLAWYQQKPGKAPKLLIYAASSLQSGVPSRFSGSGSGTDFTLTISSLQPEDFATYYCQQANSFPHTFGQGTKLEIKR |
| 2.26 | 0.000397 | 176000 | – | – | M0136-D07 (Fab, V domains shown) VH: EVQLLESGGGLVQPGGSLRLSCAASGFTFSPYKMGWVRQAPGKGLEWVSSIYPSGGVTTYADSVKGRFTISRDNSKNTLYLQMNSLRAEDTAVYYCTKNINLRYDILTGYFDIWGQGTTVTVSS VL: DIQMTQSPSSVSASVGDRVTITCRASQDIASWLAWYQQKPEKVPKLLIYAASSLQSGVPSRFSGSGSGTDFTLTINSLQPEDFATYYCQQANSFPFTFGPGTKVDFKR |
| 2.23 | 0.00107 | 481000 | – | – | M0136-E12 (Fab, V domains shown) VH: EVQLLESGGGLVQPGGSLRLSCAASGFTFSNYSMQWVRQAPGKGLEWVSSIGPSGGRTWYADSVKGRFTISRDNSKNTLYLQMNSLRAEDTAVYYCARVGVWYGMDVWGQGTTVTVSS VL: DIQMTQSPSSLSASVGDRVTITCRASHVINIDLGWYQQKPGKAPKLLIYGASHLQRGVPSRFSGSGSGTVFTLTISGLQPEDFATYYCLQDSFYPRTFGQGTRLEIKR |
| 2.26 | 0.00138 | 614000 | – | – | M0138-E02 (Fab, V domains shown) VH: EVQLLESGGGLVQPGGSLRLSCAASGFTFSHYMMHWVRQAPGKGLEWVSGIGPSGGKTPYADSVKGRFTISRDNSKNTLYLQMNSLRAEDTAVYYCARVGVWYGMDVWGQGTTVTVSS VL: DIQMTQSPSSVSASVGDRVTITCRASQGISSWLVWYQQKPGKAPKLLIYAASSLQSGVPSRFSGSGSGTDFTLTISSLQPEDFATYYCQQAKTFPLTFGGGTKVEIKR |

From patent publication US7329737 (DYAX, dated 2008)
